Results as given in patent publication US20080020412A1, “Aurora expression constructs” (priority 2006, published 2008).

T1: mouse Aurora-A (Mus musculus, UniProt P97477, K218R/M280L/N164G)
T1 construct: mouse Aurora-A residues 98-395; GST (N, cleaved yes); made in house; host or cells: E. coli BL21(DE3) Star, co-expressed with lambda phosphatase; a second 98-395 preparation came from insect cells
T1 sequence (P97477 with tags, fused parts or gaps N164G/K218R/M280L): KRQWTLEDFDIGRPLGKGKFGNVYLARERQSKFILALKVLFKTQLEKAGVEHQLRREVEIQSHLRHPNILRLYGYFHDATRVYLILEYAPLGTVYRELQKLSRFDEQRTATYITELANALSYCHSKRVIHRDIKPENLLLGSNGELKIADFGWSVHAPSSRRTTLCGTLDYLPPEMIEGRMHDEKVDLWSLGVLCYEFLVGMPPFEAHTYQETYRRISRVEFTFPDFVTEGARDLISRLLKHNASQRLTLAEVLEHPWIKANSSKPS


What was measured:
mouse Aurora-A [1] = biological target: T1, mouse Aurora-A; test: Aurora-A activity assay (HTRF, enzyme and ATP titrations, histone H3 peptide substrate); type: biochemical; conditions: compared with the longer construct, FIG. 4
Procedure: (§1) Protein samples were diluted to 1 mg/mL and incubated for 2 hrs at 4° C. with 1 mM ATP and 5 mM MgCl2. Excess ATP was removed by extensive dialysis against 50 mM Tris-HCl pH 7.5, 200 mM NaCl, and 3 mM DTT.
(§2) Aurora A was titrated twofold in an assay buffer composed of 10 mM Tris-HCl pH 7.2, 10 mM MgCl2, 0.1% BSA, 0.01% Triton X-100 and 1 mM DTT, and containing 120 nM of biotinylated histone H3 substrate peptide (Upstate Biotechnology). The kinase reactions were initiated by adding 10 μL ATP to a final volume of 60 μL and the final ATP concentration of 20 μM. The reactions were incubated at 25° C. for 60 min and terminated by adding EDTA to a final concentration of 200 mM.
(§3) To determine the Km for ATP, ATP was titrated twofold in the assay buffer. The kinase reaction was initiated by adding 50 μL Aurora A (16 nM of insect cell-produced mouse enzyme with residues 98-395, 8 nM of the bacterially produced enzyme with residues 98-395, and 30 nM of the E. coli-expressed crystallography construct with residues 116-381) and histone H3 to a final volume of 60 μL and a final concentration of 120 nM.
(§4) To detect the assay product, the kinase reaction solution was combined with the detection buffer (the KF buffer) supplemented with 0.4 ng/μL phospho-histone H3 europium cryptate-conjugated antibody and 16 nM streptavidin-XL665 (both from Cisbio) in a 1:1 ratio in a 384-well plate. The mixture was incubated for 45 minutes at 25° C. and the plate was then scanned on the Analyst AD system. The fluorescence value F is defined as the ratio of fluorescent emissions at 620 and 665 nm. ΔF was generated by subtracting the average F value for negative control for enzyme activity from the F value in each reaction well. ΔF was plotted against enzyme concentration (for enzyme titrations) or against ATP concentration (for ATP titrations) with GraphPad Prism. The Km values and confidence intervals were determined by fitting the ATP titration curve in GraphPad Prism to the following equation: y=(Vmax*x)/(Km+x), where y is ΔF/hr and x is an ATP concentration.

mouse Aurora-A [2] = test: as above; type: biochemical; conditions: for Km / Vmax/[enzyme]: ATP titration; for Km: 120 nM biotinylated histone H3 peptide, 25° C., fit in GraphPad Prism; for Vmax/[enzyme]: ΔF/hr per nM enzyme
Procedure: as §1, §2, §3, §4

mouse Aurora-B = biological target: T2, mouse Aurora-B (Mus musculus, UniProt O70126, L215S/L233S/M258K/P302T/P322T/V291S/W318S); test: Aurora-B enzyme activity assay (HTRF); type: biochemical; conditions: 20 nM construct against 300 nM commercially available Aurora-B
T2 construct: made in house; host or cells: E. coli BL21(DE3) Star
Procedure: Aurora-B enzyme preparations were tested for kinase activity in the presence and absence of compounds using a homogeneous time resolved fluorescence (HTRF) assay. In brief, the assay was performed by adding enzyme under appropriate reaction conditions to a tagged substrate. After the kinase reaction proceeds, quenching reagent is added, along with a first molecule consisting of a fluorescence donor conjugated to an antibody recognizing the phosphorylated substrate, and a second molecule that recognizes the tag and that is conjugated to a fluorescence acceptor. The extent of the kinase reaction is measured by time-resolved fluorescence transfer from the fluorescence donor to the fluorescence acceptor in a detection buffer, which occurs when the donor and acceptor are in proximity to one another on the phosphorylated substrate.
The assay was carried out as follows. […]
A 5 μL aliquot of the quenched reaction was transferred to a separate plate containing 5 μL detection buffer (final concentrations: 125 ng/mL europium cryptate-conjugated α-phospho H3 antibody, 8 nM streptavidin-tagged XL665, 25 mM HEPES buffer (pH 7.0), 0.25 M KF, and 0.05% BSA). The detection solution was allowed to incubate at room temperature for 45 min, after which the detection reactions were read on an Analyst AD (LJL Biosystems). […] Delta F is a value calculated from the ratio between the 665 nm and 620 nm emissions. […]

[3] = Electrospray mass spectrometry of purified protein for proteolysis between residues 291 and 292; type: physicochemical; conditions: expressed in E. coli, GST-tagged protein
From the text: mAurB 7X was expressed in E. coli, purified as described below, and analyzed by electrospray mass spectrometry to verify the integrity of the purified protein. […] A construct missing the Val291→Ser and Met258→Lys mutations (referred to as mAurB 5X) was purified, and analyzed by mass spec to determine the extent of proteolysis between Val291 and Lys292. Even in this wild type configuration, proteolysis still affected approximately 25% of total GST-tagged protein. Two additional conservative mutations were introduced to eliminate the major site of proteolysis: Val291→Leu and Lys292→Arg referred to as mAurB 8X VK→LR (5′ primer: SEQ ID NO:53; 3′ primer: SEQ ID NO:54) and Val291→Leu and Lys292→Gln referred to as mAurB 8X VK→LQ (5′ primer: SEQ ID NO:55; 3′ primer: SEQ ID NO:56). The protein sequences of the mAurB 8X VK→LR and mAurB 8X VK→LQ are provided in SEQ ID NO:57 and SEQ ID NO:58, respectively.

Row | Molecule | change in Km for ATP (in words) (mouse Aurora-A [1]) | Km (mouse Aurora-A [2]) [µM] | Vmax/[enzyme] (mouse Aurora-A [2]) [h⁻¹ nM⁻¹] | enzyme activity (in words) (mouse Aurora-A [2]; H3 peptide as substrate, FIG. 4) | activity compared with commercially available Aurora-B (mouse Aurora-B) | extent of proteolysis between residue 291 and Lys292 [3]
1 | E. coli-produced 116-381: E. coli-expressed mouse Aurora-A crystallography construct, residues 116-381 (human residues 125-391) (protein, Mutated Constructs) KRQWTLEDFDIGRPLGKGKFGNVYLARERQSKFILALKVLFKTQLEKAGVEHQLRREVEIQSHLRHPNILRLYGYFHDATRVYLILEYAPLGTVYRELQKLSRFDEQRTATYITELANALSYCHSKRVIHRDIKPENLLLGSNGELKIADFGWSVHAPSSRRTTLCGTLDYLPPEMIEGRMHDEKVDLWSLGVLCYEFLVGMPPFEAHTYQETYRRISRVEFTFPDFVTEGARDLISRLLKHNASQRLTLAEVLEHPWIKANSSKPS | substantial increase in the Km for ATP | 65.3 ± 16.1 | 280 | less active |  | 
2 | insect cell-expressed 98-395: insect cell-produced mouse Aurora-A enzyme with residues 98-395 (human residues 107-403) (protein, UniProt P97477 98-395, looked up, fragment) GNDSEKEQASLQKTEDTKKRQWTLEDFDIGRPLGKGKFGNVYLARERQSKFILALKVLFKTQLEKANVEHQLRREVEIQSHLRHPNILRLYGYFHDATRVYLILEYAPLGTVYRELQKLSKFDEQRTATYITELANALSYCHSKRVIHRDIKPENLLLGSNGELKIADFGWSVHAPSSRRTTMCGTLDYLPPEMIEGRMHDEKVDLWSLGVLCYEFLVGMPPFEAHTYQETYRRISRVEFTFPDFVTEGARDLISRLLKHNASQRLTLAEVLEHPWIKANSSKPPTGHTSKEPTSKSS |  | 13.6 ± 3.9 | 590 |  |  | 
3 | E. coli-produced 98-395: bacterially produced mouse Aurora-A residues 98-395 with three humanizing and stabilizing mutations (protein, Mutated Constructs, bacterially produced mouse Aurora-A residues 98-395 with three humanizing and stabilizing mutations) GNDSEKEQASLQKTEDTKKRQWTLEDFDIGRPLGKGKFGNVYLARERQSKFILALKVLFKTQLEKAGVEHQLRREVEIQSHLRHPNILRLYGYFHDATRVYLILEYAPLGTVYRELQKLSRFDEQRTATYITELANALSYCHSKRVIHRDIKPENLLLGSNGELKIADFGWSVHAPSSRRTTLCGTLDYLPPEMIEGRMHDEKVDLWSLGVLCYEFLVGMPPFEAHTYQETYRRISRVEFTFPDFVTEGARDLISRLLKHNASQRLTLAEVLEHPWIKANSSKPPTGHTSKEPTSKSS |  | 10.5 ± 3.5 | 1035 |  |  | 
4 | mAurB 7X: truncated mouse Aurora-B with 7 hydrophobic surface residues mutated, GST-tagged (protein, listed as Mus musculus, GST tag, truncated mouse Aurora-B with 7 hydrophobic surface residues mutated, GST-tagged) KRQFTIDNFEIGRPLGKGKFGNVYLAREKKSRFIVALKILFKSQIEKEGVEHQLRREIEIQAHLKHPNILQLYNYFYDQQRIYLILEYAPRGELYKELQKSRTFDEQRTATIMEELSDALTYCHKKKVIHRDIKPENLLLGSQGELKIADFGWSVHAPSSRRKTMCGTLDYLPPEMIEGRMHNEKVDLWCIGVLCYELMVGNPPFESPSHSETYRRISKVDLKFPSSVTSGAQDLISKLLKHNPSQRLTLAEVAAHPWVRANSRRPS |  |  |  |  | compares favorably | Approximately 50%
